From the supplement of paper PMC12764529
± gives the half width of the 95% confidence interval.

Legend:
[1] = folding stability dG unfold from trypsin proteolysis; higher = more stable
Summary of the method: (§1)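 Mini-proteins designed to be under 80 residues and free of cysteine were carried in a PA-tagged cDNA display construct and digested with trypsin and with chymotrypsin. Each protease was applied at 11 threefold-diluted concentrations, alongside a no-protease condition, before sequencing. K50 came from Bayesian fitting of the sequencing counts, and unfolding free energy was obtained by comparing it with a sequence-predicted unfolded-state K50 and a shared folded-state K50, for each protease separately or for both together. Designs were retained only if their AlphaFold2 dimer inter-PAE exceeded 15.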

[2] = folding stability dG unfold (combined trypsin and chymotrypsin); higher = more stable
Summary of the method: as §1

[3] = folding stability dG unfold from chymotrypsin proteolysis; higher = more stable
Summary of the method: as §1

Sequence | folding stability dG unfold [1] | folding stability dG unfold [2] | folding stability dG unfold [3]
SAGGSAGGSMIIIVKLPNGEELPIEVEGEEEAEKIAEEIVKALIEKGITPVSVEIRPIKPEEGSAGGSAGGS [r12_301_TrMRF] | 3.13 ± 0.13 kcal/mol | 2.97 ± 0.21 kcal/mol | 2.28 ± 0.17 kcal/mol
SAGGSAGGSMIIRIKTENGEEIEIEAESEEEAKKAAEELKKELEEKGYKIEEVEIYEIPEEELSAGGSAGGS [r12_301_TrROS_Hall] | 1.13 ± 0.076 kcal/mol | 2.05 ± 0.26 kcal/mol | 2.32 ± 0.13 kcal/mol
SAGGSAGGSMIKRTVTVTVYFPGKPLSIPVEYTSEEELPVVAEEAVKPIIEKVPEYKIPEPKLSAGGSAGGS [r12_230_JUSTAS] | 0.529 ± 0.21 kcal/mol | 0.561 ± 0.33 kcal/mol | 0.292 ± 0.2 kcal/mol
SAGGSAGGSMIVKLEDGTYLVRIVNKDTKEVIEIEVSAEEAEELAKELNIEKVEIVKAGEPLESAGGSAGGS [r12_294_TrROS_Hall] | 1.78 ± 0.069 kcal/mol | 2.38 ± 0.17 kcal/mol | 2.71 ± 0.059 kcal/mol
SAGGSAGGSMIVVPESVSPEEAEATARQVAQELGISPDTPLEVEIKEVKTGENSVYEIRVTLRSAGGSAGGS [r12_252_JUSTAS] | 0.097 ± 0.056 kcal/mol | 0.199 ± 0.092 kcal/mol | 0.19 ± 0.13 kcal/mol
SAGGSAGGSMKIKVEVEMEKVKDPKKKGEYIYKMKIKKVEIELSEEEKEKLKELAEKLGIEVESAGGSAGGS [r12_249_TrROS_Hall] | 1.42 ± 0.066 kcal/mol | 2.08 ± 0.17 kcal/mol | 2.35 ± 0.074 kcal/mol
SAGGSAGGSMKIPEDETYEEKLPDGRKVTYTWEPESGLLKTTTTDPNNDTPTTSTYKVPPSSLLSAGGSAGG [r6_407_JUSTAS] | 0.0466 ± 0.2 kcal/mol | 0.262 ± 0.25 kcal/mol | 0.49 ± 0.31 kcal/mol
SAGGSAGGSMKIPSDYTLTPIETKDNGASTVTLEKVTYPGPSLLATFLTPPDGTVTLLEVKPVSAGGSAGGS [r20_103_JUSTAS] | 0.525 ± 0.046 kcal/mol | 0.997 ± 0.065 kcal/mol | 1.24 ± 0.072 kcal/mol
SAGGSAGGSMKITKSPSGYYTVTINLPNGTTVEIKVSTSDPNATDEQIIEIAKPKAEEILKKSSAGGSAGGS [r12_642_JUSTAS] | 1.16 ± 0.054 kcal/mol | 2.53 ± 0.14 kcal/mol | 2.87 ± 0.12 kcal/mol
SAGGSAGGSMKIYEVPPEVAENMSLEEIIESLVLPGYPAKAEAFEDEGPGYVLVDLFLPPELGSAGGSAGGS [r12_716_TrMRF] | -0.666 ± 0.12 kcal/mol | 0.842 ± 0.13 kcal/mol | 1.02 ± 0.029 kcal/mol
SAGGSAGGSMKKIKVKIKITDKDGNKKEVEAEIFFDEETGKLYIKLPNGEVKEISLEDIEIVESAGGSAGGS [r12_256_TrROS_Hall] | 2.46 ± 0.08 kcal/mol | 3.63 ± 0.09 kcal/mol | 4.01 ± 0.069 kcal/mol
SAGGSAGGSMKLEVEAELEVPLPNGKPKRFKVKFRVEPGESGVKVEVLEVDDPLVVEAIKKLFSAGGSAGGS [r12_743_TrMRF] | 2.2 ± 0.034 kcal/mol | 2.65 ± 0.096 kcal/mol | 3 ± 0.072 kcal/mol
SAGGSAGGSMKLTLESASPDPNKVTYTIKFPGGETLTEELPEEEIEKRSKELGWNIKLFGPTKSAGGSAGGS [r12_676_JUSTAS] | -0.0326 ± 0.29 kcal/mol | -0.0928 ± 0.28 kcal/mol | 0.098 ± 0.42 kcal/mol
SAGGSAGGSMKNIKEIKVERRKLPNGGEYYVVTITYPDGKEIIIEMSPEETLEEALEKAKELSSAGGSAGGS [r12_1047_JUSTAS] | 2.87 ± 0.16 kcal/mol | 2.92 ± 0.13 kcal/mol | 3.01 ± 0.21 kcal/mol
SAGGSAGGSMKPLGQGDFEDPDGWKIKISMYPDGWFRIEIYDKNGKPKETIPVPANDLPDILKSAGGSAGGS [r12_664_TrROS] | 0.664 ± 0.027 kcal/mol | 1.21 ± 0.064 kcal/mol | 1.43 ± 0.053 kcal/mol
SAGGSAGGSMKTITVTFSSEEEAKKAAEEILKKEGFDEKIKEVTLTYSKEGNVLTGTVTVKTPSAGGSAGGS [r12_7_JUSTAS] | 0.449 ± 0.042 kcal/mol | 0.945 ± 0.089 kcal/mol | 1.2 ± 0.046 kcal/mol
SAGGSAGGSMKTKTIEIEIDGKKVRITIDSDGNITIEVPSEEVKEALKKLLPPGVKITKIEPVSAGGSAGGS [r12_9_TrROS_Hall] | 2.15 ± 0.13 kcal/mol | 1.94 ± 0.21 kcal/mol | 1.61 ± 0.1 kcal/mol
SAGGSAGGSMKTLTLEGESEEEAIEKVKEYFKKKGINYKLLKIEISEKPNGTKIYTIDIDTKKSAGGSAGGS [r12_924_JUSTAS] | 1.19 ± 0.1 kcal/mol | 2.04 ± 0.2 kcal/mol | 2.33 ± 0.1 kcal/mol
SAGGSAGGSMKVEITKVEPETGPNGRPYYRVEVKVIGEDGSPYTFTFYFEKPSDIENAKISLDSAGGSAGGS [r20_130_TrMRF] | 2.67 ± 0.19 kcal/mol | 3.5 ± 0.21 kcal/mol | 3.91 ± 0.07 kcal/mol
SAGGSAGGSMKVYKLPGGYTVTVEPVDGGTLVTITLPDGSVKTKFVPPDEPVVVDPNGAKITVSAGGSAGGS [r12_281_JUSTAS] | 1.85 ± 0.071 kcal/mol | 2.29 ± 0.077 kcal/mol | 2.55 ± 0.036 kcal/mol
SAGGSAGGSMKYTLLSTRKNPDGTELRLIEVSEDPEKAKEYLESQGAVEIEFKKNIMTVTFKSSAGGSAGGS [r20_222_JUSTAS] | -0.216 ± 0.22 kcal/mol | -0.214 ± 0.17 kcal/mol | -0.321 ± 0.32 kcal/mol
SAGGSAGGSMLTIEKPMPGTTEEEALEYAEELKEKNPNYKIEVEIEKTEEGYLTVKIKLTKKESAGGSAGGS [r12_425_JUSTAS] | 1.31 ± 0.12 kcal/mol | 0.972 ± 0.24 kcal/mol | 0.879 ± 0.12 kcal/mol
SAGGSAGGSMLVEVEYEGGERRTFPLENRSVEEAVEALPEGVTRVRVTVYLGEKPVEFEVERPSAGGSAGGS [r12_767_TrMRF] | 0.271 ± 0.077 kcal/mol | 0.799 ± 0.052 kcal/mol | 1.07 ± 0.067 kcal/mol
SAGGSAGGSMLVLKVEVKIEVEEREVIGPDGKIKKEKKIKIEIKIELFELPPLTEEELKKLKESAGGSAGGS [r12_1060_TrROS_Hall] | 2.73 ± 0.27 kcal/mol | 3.6 ± 0.72 kcal/mol | 4.14 ± 0.21 kcal/mol
SAGGSAGGSMNPEVPYAKVTLELKLPDGTTATLTLEVPLEEIPKVIEELKKKGYEILSIKIEPSAGGSAGGS [r12_986_JUSTAS] | 4.17 ± 0.23 kcal/mol | 5.07 ± 0.27 kcal/mol | 5.02 ± 0.13 kcal/mol
SAGGSAGGSMNVSPEELEALARERIEALLAENPDVPRDDVVLEFEGRSESPGKVITLTLRVRASAGGSAGGS [r12_707_JUSTAS] | 0.242 ± 0.14 kcal/mol | 0.0895 ± 0.21 kcal/mol | -0.00174 ± 0.23 kcal/mol
